Substrate in this data set: Nc1ncnc2c1ncn2[C@@H]1O[C@H](COP(=O)(O)O)[C@@H](O)[C@H]1O
Description: Activity at alkaline phosphatase.

B1: Alkaline phosphatase, tissue-nonspecific isozyme (Homo sapiens), P05186 (protein)
chain: MISPFLVLAIGTCLTNSLVPEKEKDPKYWRDQAQETLKYALELQKLNTNVAKNVIMFLGDGMGVSTVTAARILKGQLHHNPGEETRLEMDKFPFVALSKTYNTNAQVPDSAGTATAYLCGVKANEGTVGVSAATERSRCNTTQGNEVTSILRWAKDAGKSVGIVTTTRVNHATPSAAYAHSADRDWYSDNEMPPEALSQGCKDIAYQLMHNIRDIDVIMGGGRKYMYPKNKTDVEYESDEKARGTRLDGLDLVDTWKSFKPRYKHSHFIWNRTELLTLDPHNVDYLLGLFEPGDMQYELNRNNVTDPSLSEMVVVAIQILRKNPKGFFLLVEGGRIDHGHHEGKAKQALHEAVEMDRAIGQAGSLTSSEDTLTVVTADHSHVFTFGGYTPRGNSIFGLAPMLSDTDKKPFTAILYGNGPGYKVVGGERENVSMVDYAHNNYQAQSAVPLRHETHGGEDVAVFSKGPMAHLLHGVHEQNYVPHVMAYAACIGANLGHCAPASSAGSLAAGPLLLALALYPLSVLF
B1: the Km came out at 441 µM.

Usually Km stands for the concentration of substrate that gives half-maximal velocity.

Values taken from ChEMBL document CHEMBL1155272, “Nucleoside-5'-monophosphates as prodrugs of adenosine A2A receptor agonists activated by ecto-5'-nucleotidase” (J Med Chem, 2009).
